PMC4742958, “NuSAP governs chromosome oscillation by facilitating the Kid-generated polar ejection force” (Nature Communications, 2016)

Molecular target: T1, glutathione S-transferase (GST)-tagged Kid recombinant protein (human, UniProt Q14807 1-665)
T1 construct: cDNA amplified from a cDNA library extracted from HEK 293T cells, inserted into pGEX-4T-1; Vector pGEX-4T-1; The discussion calls the Kid of the gliding assay (Kid-GFP-His, another construct) full-length; nothing is said of the limits of GST-Kid; also called GST-Kid; source: E. coli BL21 (DE3) pLysS, purified (glutathione-Sepharose 4B)
T1 sequence (looked up): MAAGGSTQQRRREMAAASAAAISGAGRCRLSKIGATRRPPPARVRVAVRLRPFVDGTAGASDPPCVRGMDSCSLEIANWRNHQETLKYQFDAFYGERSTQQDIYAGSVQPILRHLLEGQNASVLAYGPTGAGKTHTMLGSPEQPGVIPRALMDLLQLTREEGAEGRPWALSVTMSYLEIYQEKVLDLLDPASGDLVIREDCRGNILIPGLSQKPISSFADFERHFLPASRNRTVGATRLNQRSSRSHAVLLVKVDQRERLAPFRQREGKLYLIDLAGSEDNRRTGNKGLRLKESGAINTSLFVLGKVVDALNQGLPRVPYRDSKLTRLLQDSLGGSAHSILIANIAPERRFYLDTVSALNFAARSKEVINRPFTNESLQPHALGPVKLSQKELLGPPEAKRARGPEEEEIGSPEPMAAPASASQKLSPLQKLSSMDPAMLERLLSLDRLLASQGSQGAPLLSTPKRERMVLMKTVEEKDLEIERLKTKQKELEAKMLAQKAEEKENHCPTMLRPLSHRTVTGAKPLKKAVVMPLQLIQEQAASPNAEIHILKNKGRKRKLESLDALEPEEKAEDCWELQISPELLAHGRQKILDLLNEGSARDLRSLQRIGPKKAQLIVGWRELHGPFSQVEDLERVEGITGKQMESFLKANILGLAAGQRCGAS
Experiment: pull-down; GST or GST-Kid (2 μg) on glutathione beads with 2 μg purified His-NuSAP; 50 mM Tris-HCl pH 7.0, 150 mM NaCl, 1 mM EGTA, 0.5% Triton X-100; 3 h at 4 °C; NuSAP blotted with anti-NuSAP antibody
Conditions: both partners purified

- binding result: binds
B1: His-tagged NuSAP recombinant protein (natural protein, human (cDNA library from HEK 293T cells), UniProt Q9BXS6 1-441, looked up)
chain: MIIPSLEELDSLKYSDLQNLAKSLGLRANLRATKLLKALKGYIKHEARKGNENQDESQTSASSCDETEIQISNQEEAERQPLGHVTKTRRRCKTVRVDPDSQQNHSEIKISNPTEFQNHEKQESQDLRATAKVPSPPDEHQEAENAVSSGNRDSKVPSEGKKSLYTDESSKPGKNKRTAITTPNFKKLHEAHFKEMESIDQYIERKKKHFEEHNSMNELKQQPINKGGVRTPVPPRGRLSVASTPISQRRSQGRSCGPASQSTLGLKGSLKRSAISAAKTGVRFSAATKDNEHKRSLTKTPARKSAHVTVSGGTPKGEAVLGTHKLKTITGNSAAVITPFKLTTEATQTPVSNKKPVFDLKASLSRPLNYEPHKGKLKPWGQSKENNYLNQHVNRINFYKKTYKQPHLQTKEEQRKKREQERKEKKAKVLGMRRGLILAED
notes: NuSAP; cDNA amplified from a cDNA library extracted from HEK 293T cells, inserted into pET28b; Vector pET28b; also called His-NuSAP; source: E. coli BL21 (DE3) pLysS, purified (Ni-NTA agarose)
